Measurements taken from publication PMC4104026.

Target: Hfq (His6-tagged) (UniProt P0A6X3 1-102)
Test: EMSA; affinity comparable to GcvB; tRNA competitor; Single-RNA EMSA: 10 mM Tris-HCl pH 7.4, 0.1 mM EDTA, 10 mM NH4Cl, 10 mM NaCl, 10 mM KCl, 1 mg/ml tRNA, 4% glycerol, RT 5 min; ~40 fmol RNA (legend); Methods say
Conditions: protein: recombinant; tags: His6; chain copies: 6; label: 32P; 3' terminator hairpin

Chain of Hfq (His6-tagged) (P0A6X3 whole entry): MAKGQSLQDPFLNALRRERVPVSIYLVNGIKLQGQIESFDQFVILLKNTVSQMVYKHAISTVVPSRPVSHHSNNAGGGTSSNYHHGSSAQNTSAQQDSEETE

B1: AgvB (EcOnc01) sRNA (structured_RNA)
RNA: CGAUAACACAACAAUAUCAGUAUCUCAUGCUAUUGCCCGAACCCAUUCGGGCAUUUUU
Q: Does B1 bind?
A: binds
